Source: the RNAGym collection of RNA variant scans (doi:10.7554/elife.80360)

B1: HDV Ribozyme (parent)
chain: GGCCGGCAUGGUCCCAGCCUCCUCGCUGGCGCCGGCUGGGCAACAUUCCGAGGGGACCGUCCCCUCGGUAAUGGCGAAUGGGACCCA

Variants of: B1
Assay: self-cleavage, relative activity (ratio to wild type); higher = more cleavage; co-transcriptional

| Variant | self-cleavage |
| --- | --- |
| GGCCGGCAUGGUCCCAGCCUCCUCGCUGGCGCCGGCUGUGCAACAUUCCGAGGGGACCGUCCCCUCGGUGAUGGCGAAUGGGACCCA [G39U A70G] | 0.637 |
| GGCCGGCAUGGUCCCAGCCUCCUCGCUGGCGCCGGCUGAGCAACAUUCCGAGGGGACCGUCCCCUCGGUAAGGGCGAAUGGGACCCA [G39A U72G] | 0.102 |
| GGCCGGCAUGGUCCCAGCCUCCUCGCUGGCGCCGGCUGAGCAACAUACCGAGGGGACCGUCCCCUCGGUAAUGGCGAAUGGGACCCA [G39A U47A] | 0.356 |
| GGCCGGCAUGGUCCCAGCCUCCUCGCUGGCGCCGGCUGAGCAACAUUCCGAGGGGACCGGCCCCUCGGUAAUGGCGAAUGGGACCCA [G39A U60G] | 0.404 |
| GGCCGGCAUGGUCCCAGCCUCCUCGCUGGCGCCGGCUGCGCAACAUUCCGAGGGGACCGUCCCCUCGGUCAUGGCGAAUGGGACCCA [G39C A70C] | 0.175 |
| GGCCGGCAUGGUCCCAGCCUCCUCGCUGGCGCCGGCUGAGCAACAUUCCGAGGGGACCGUCCUCUCGGUAAUGGCGAAUGGGACCCA [G39A C63U] | 0.503 |
| GGCCGGCAUGGUCCCAGCCUCCUCGCUGGCGCCGGCUGCGCAACAUUCCGAGGGGACCGUCCCCUCGGUAAUGGCGAAUGUGACCCA [G39C G81U] | 0.143 |
| GGCCGGCAUGGUCCCAGCCUCCUCGCUGGCGCCGGCUGAGCAACAUUCCGAGGGGACCGUCGCCUCGGUAAUGGCGAAUGGGACCCA [G39A C62G] | 0.129 |
| GGCCGGCAUGGUCCCAGCCUCCUCGCUGGCGCCGGCUGAGCAACAUUCCGAGGGGACCGUCACCUCGGUAAUGGCGAAUGGGACCCA [G39A C62A] | 0.554 |
| GGCCGGCAUGGUCCCAGCCUCCUCGCUGGCGCCGGCUGAGCAACAUUCCGAGGGGACCUUCCCCUCGGUAAUGGCGAAUGGGACCCA [G39A G59U] | 0.598 |
| GGCCGGCAUGGUCCCAGCCUCCUCGCUGGCGCCGGCUGAGCAACAUUCCGAGGGGACCCUCCCCUCGGUAAUGGCGAAUGGGACCCA [G39A G59C] | 0.546 |
| GGCCGGCAUGGUCCCAGCCUCCUCGCUGGCGCCGGCUGUGGAACAUUCCGAGGGGACCGUCCCCUCGGUAAUGGCGAAUGGGACCCA [G39U C41G] | 0.46 |
| GGCCGGCAUGGUCCCAGCCUCCUCGCUGGCGCCGGCUGAGCAACAUUCCGAGGGGACCGUCCCCUCGGUAAUGGCAAAUGGGACCCA [G39A G76A] | 0.421 |
| GGCCGGCAUGGUCCCAGCCUCCUCGCUGGCGCCGGCUGUGCAACAUUCCGAGGGGACCGUCCCCUCGGUAAUGGCGAAUGGGACCCG [G39U A87G] | 0.661 |
| GGCCGGCAUGGUCCCAGCCUCCUCGCUGGCGCCGGCUGUGCAACAUUCCGAGGGGACCGUCCCCUCGGUAAUGGCGAAUGGGACCCC [G39U A87C] | 0.646 |
| GGCCGGCAUGGUCCCAGCCUCCUCGCUGGCGCCGGCUGAGCAACAUUCCGAGGGGACCGUCCCCUCGGUAAUGGCGAAUCGGACCCA [G39A G80C] | 0.145 |

| Variant | self-cleavage |
| --- | --- |
| GGCCGGCAUGGUCCCAGCCUCCUCGCUGGCGCCGGCUGCACAACAUUCCGAGGGGACCGUCCCCUCGGUAAUGGCGAAUGGGACCCA [G39C G40A] | 0.695 |
| GGCCGGCAUGGUCCCAGCCUCCUCGCUGGCGCCGGCUGCGCAACAUUCCGAGGAGACCGUCCCCUCGGUAAUGGCGAAUGGGACCCA [G39C G54A] | 0.188 |
| GGCCGGCAUGGUCCCAGCCUCCUCGCUGGCGCCGGCUGCGCAACAUUCCGAGGGGACCGUCCCAUCGGUAAUGGCGAAUGGGACCCA [G39C C64A] | 0.0369 |
| GGCCGGCAUGGUCCCAGCCUCCUCGCUGGCGCCGGCUGCGCAACAUUCCGAGGGGACCGUCCCCUCGGUAAUGGCGAAUUGGACCCA [G39C G80U] | 0.101 |
| GGCCGGCAUGGUCCCAGCCUCCUCGCUGGCGCCGGCUGCGCAACAUUCCGAGGGGACCGUCCCCUCGGAAAUGGCGAAUGGGACCCA [G39C U69A] | 0.17 |
| GGCCGGCAUGGUCCCAGCCUCCUCGCUGGCGCCGGCUGCGCAACGUUCCGAGGGGACCGUCCCCUCGGUAAUGGCGAAUGGGACCCA [G39C A45G] | 0.0923 |
| GGCCGGCAUGGUCCCAGCCUCCUCGCUGGCGCCGGCUGCGCAACAUUCCGAGGGGACCGUGCCCUCGGUAAUGGCGAAUGGGACCCA [G39C C61G] | 0.196 |
| GGCCGGCAUGGUCCCAGCCUCCUCGCUGGCGCCGGCUGCGCAACAUUCCGAGGGGACCGUUCCCUCGGUAAUGGCGAAUGGGACCCA [G39C C61U] | 0.233 |
| GGCCGGCAUGGUCCCAGCCUCCUCGCUGGCGCCGGCUGCGCAACAUUCCGAGGGGACCGUCCCCUCGGUAAUGACGAAUGGGACCCA [G39C G74A] | 0.36 |
| GGCCGGCAUGGUCCCAGCCUCCUCGCUGGCGCCGGCUGCGCAACAUUCCGUGGGGACCGUCCCCUCGGUAAUGGCGAAUGGGACCCA [G39C A51U] | 0.219 |
| GGCCGGCAUGGUCCCAGCCUCCUCGCUGGCGCCGGCUGCGCAACAUCCCGAGGGGACCGUCCCCUCGGUAAUGGCGAAUGGGACCCA [G39C U47C] | 0.166 |
| GGCCGGCAUGGUCCCAGCCUCCUCGCUGGCGCCGGCUGAGCAACAUUCCGAGGGGACCGUCCCCUCGGUAAUGGCGAAUGGUACCCA [G39A G82U] | 0.0536 |
| GGCCGGCAUGGUCCCAGCCUCCUCGCUGGCGCCGGCUGAGCAACAUUCCGAGGGGACCGUCCCCGCGGUAAUGGCGAAUGGGACCCA [G39A U65G] | 0.264 |
| GGCCGGCAUGGUCCCAGCCUCCUCGCUGGCGCCGGCUGCGCAACAUUCCGAGGGUACCGUCCCCUCGGUAAUGGCGAAUGGGACCCA [G39C G55U] | 0.305 |
| GGCCGGCAUGGUCCCAGCCUCCUCGCUGGCGCCGGCUGCGCAACAUUCCGAGGGAACCGUCCCCUCGGUAAUGGCGAAUGGGACCCA [G39C G55A] | 0.211 |
| GGCCGGCAUGGUCCCAGCCUCCUCGCUGGCGCCGGCUGUGCAACGUUCCGAGGGGACCGUCCCCUCGGUAAUGGCGAAUGGGACCCA [G39U A45G] | 0.743 |
